Measured values as given in patent US20170022281A1 (AbbVie / Abbott, published 2017).

T1: human PRLR on cells (human, UniProt P16471 25-622)
T1 sequence: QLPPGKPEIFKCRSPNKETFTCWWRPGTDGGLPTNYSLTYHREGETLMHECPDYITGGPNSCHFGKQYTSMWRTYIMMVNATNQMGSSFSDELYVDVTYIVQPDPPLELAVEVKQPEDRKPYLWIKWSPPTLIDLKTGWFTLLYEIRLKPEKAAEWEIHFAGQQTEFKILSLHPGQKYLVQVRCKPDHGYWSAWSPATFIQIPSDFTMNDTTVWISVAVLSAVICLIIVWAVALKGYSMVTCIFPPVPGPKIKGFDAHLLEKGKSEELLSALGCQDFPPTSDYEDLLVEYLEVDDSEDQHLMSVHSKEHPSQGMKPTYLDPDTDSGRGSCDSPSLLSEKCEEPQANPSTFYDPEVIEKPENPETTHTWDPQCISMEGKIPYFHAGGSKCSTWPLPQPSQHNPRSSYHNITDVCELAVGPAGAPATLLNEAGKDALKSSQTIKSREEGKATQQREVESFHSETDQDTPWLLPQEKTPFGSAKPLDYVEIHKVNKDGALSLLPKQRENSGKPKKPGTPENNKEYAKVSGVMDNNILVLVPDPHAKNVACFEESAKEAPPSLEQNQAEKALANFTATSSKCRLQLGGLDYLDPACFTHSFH

T2: cyno PRLR (Biacore antigen) (cyno, UniProt A0A2K5WXK1 25-234)
T2 construct: also called cyPRLR
T2 sequence: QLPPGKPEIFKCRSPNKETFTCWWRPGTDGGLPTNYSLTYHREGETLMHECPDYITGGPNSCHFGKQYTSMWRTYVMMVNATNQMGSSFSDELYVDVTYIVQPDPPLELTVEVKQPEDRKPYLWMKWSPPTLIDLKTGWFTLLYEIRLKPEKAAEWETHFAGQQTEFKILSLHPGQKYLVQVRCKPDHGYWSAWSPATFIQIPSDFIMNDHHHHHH

T3: human PRLR (Biacore antigen) (human, UniProt P16471 25-234, limits assumed)
T3 construct: The construct injected over captured antibody is not described (a soluble form is likely); also called huPRLR
T3 sequence: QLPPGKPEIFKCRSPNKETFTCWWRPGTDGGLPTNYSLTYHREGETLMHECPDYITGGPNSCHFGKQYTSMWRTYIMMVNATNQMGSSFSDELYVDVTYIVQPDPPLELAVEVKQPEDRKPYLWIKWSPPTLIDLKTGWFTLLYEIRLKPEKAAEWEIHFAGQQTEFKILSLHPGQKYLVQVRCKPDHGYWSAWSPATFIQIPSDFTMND


Experiments:
human PRLR on cells = molecular target: T1, human PRLR on cells; experiment: cell-based or functional assay
[1] = molecular target: T2, cyno PRLR (Biacore antigen); experiment: SPR Biacore
Summary of the method: (§1)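 Association rate, dissociation rate and dissociation constant were measured by surface plasmon resonance on a Biacore instrument. PRLR antigen was tested at 600 nM, 66.67 nM and 7.41 nM, a 3-point, 9-fold dilution series. Constants came from a 1:1 binding model fit (local Rmax, mass-transport term included) in Biacore T200 Evaluation Software.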

[2] = molecular target: T3, human PRLR (Biacore antigen); experiment: SPR Biacore
Summary of the method: as §1

[3] = molecular target: cyno PRLR on Baf3-cyPRLR cells (cyno); experiment: cell-based or functional assay

Binder | Baf3-hPRLR proliferation IC50 (human PRLR on cells) [µg/mL] | also measured
Ab22 (antibody, human IgG1, kappa, V domains shown) VH: EVQLVQSGAEVKKPGSSVKVSCKASGGTFTTYWMHWVRQAPGQGLEWIGEIDPSDSYSNYAQKFQGRVTITVDKSTSTAYMELSSLRSEDTAVYYCARNGGLGPAWFSYWGQGTLVTVSS VL: DIQMTQSPSSVSASVGDRVTITCKASQYVGTAVAWYQQKPGKAPKLLIYSASNRYTGVPSRFSGSGSGTDFTLTISSLQPEDFATYYCQQYSSYPWTFGGGTKVEIKR | > 30 | –
Ab24 (antibody, human IgG1, kappa, V domains shown) VH: EVQLVQSGAEVKKPGSSVKVSCKASGGTFTTYWMHWVRQAPGQGLEWIGEIDPSDSYSNYAQKFQGRVTITVDKSTSTAYMELSSLRSEDTAVYYCARNGGLGPAWFSYWGQGTLVTVSS VL: EIVMTQSPATLSVSPGERATLSCKASQYVGTAVAWYQQKPGQAPRLLIYSASNRYTGIPARFSGSGSGTEFTLTISSLQSEDFAVYYCQQYSSYPWTFGGGTKVEIKR | > 30 | –
Ab25 (antibody, human IgG1, kappa, V domains shown) VH: EVQLVQSGAEVKKPGSSVKVSCKASGGTFTTYWMHWVRQAPGQGLEWIGEIDPSDSYSNYAQKFQGRVTITVDKSTSTAYMELSSLRSEDTAVYYCARNGGLGPAWFSYWGQGTLVTVSS VL: EIVMTQSPATLSVSPGERATLSCKASQYVGTAVAWYQQKPGQSPRLLIYSASNRYTGVPARFSDSGSGTEFTLTISSLQSEDFAVYFCQQYSSYPWTFGGGTKVEIKR | > 30 | –
Ab23 (antibody, human IgG1, kappa, V domains shown) VH: EVQLVQSGAEVKKPGSSVKVSCKASGGTFTTYWMHWVRQAPGQGLEWIGEIDPSDSYSNYAQKFQGRVTITVDKSTSTAYMELSSLRSEDTAVYYCARNGGLGPAWFSYWGQGTLVTVSS VL: DIQMTQSPSSVSASVGDRVTITCKASQYVGTAVAWYQQKPGKSPKLLIYSASNRYTGVPSRFSDSGSGTDFTLTISSLQPEDFATYFCQQYSSYPWTFGGGTKVEIKR | > 30 | –
Ab53 (antibody, human IgG1, kappa, V domains shown, humanized from Ab7 (back mutations on Ab36); G1; also called Ab4 HC.1b.2 and Ab4 LC.1a) VH: EVQLVQSGAEVKKPGSSVKVSCKASGYTFTSYWIHWVRQAPGQGLEWIGEIDPSDSYTNYNQKFKGRVTITVDKSTSTAYMELSSLRSEDTAVYYCARSFFTNWFAYWGQGTLVTVSS VL: DVVMTQTPLSLSVTPGQPASISCRSSQSLVHSNGNTYLHWYLQKPGQSPQLLIYKVSNRFSGVPDRFSGSGSGTDFTLKISRVEAEDVGVYFCSQSTHVPFTFGGGTKVEIKR | 1.03 | Kd [1]: 7.8 nM; koff [1]: 0.00089 s⁻¹; kon [1]: 110000 M⁻¹ s⁻¹; Kd [2]: 8.5 nM; koff [2]: 0.001 s⁻¹; kon [2]: 120000 M⁻¹ s⁻¹
Ab42 (antibody, human IgG1, kappa, V domains shown) VH: EVQLVQSGAEVKKPGSSVKVSCKASGGTFTSYWIHWVRQAPGQGLEWIGEIDPSDSYTNYAQKFQGRVTITVDKSTSTAYMELSSLRSEDTAVYYCARSFFTNWFAYWGQGTLVTVSS VL: DVVMTQTPLSLSVTPGQPASISCRSSQSLVHSNGNTYLHWYLQKPGQSPQLLIYKVSNRFSGVPDRFSGSGSGTDFTLKISRVEAEDVGVYFCSQSTHVPFTFGGGTKVEIKR | 4.76 | –
chAb9 (antibody, human IgG1, kappa, V domains shown) VH: EVQLQQSGPELVRPGASVKISCKASGYSFTDYNMHWVKQSHGKSLEWIGYIYPYNGGAGYNQKFKSKATMNVGISSSTAYMELRSLTSEDSAVYYCARGDGNYVGDMDYWGQGTSVTVSS VL: DIQMTQSPASLSASVGETVTITCRASENIYSYLAWYQQKQGKSPQLLVYNAKTLAEGVPSRFSGSGSGTQFSLKINSLQPEDFGSYYCQHHSGTPFTFGSGTKLEIKT | 0.2 | Baf3-cyPRLR proliferation IC50 [3]: 10.4 µg/mL
Ab32 (antibody, human IgG1, kappa) heavy: not shown light: DIVMTQTPLSLSVTPGQPASISCRSSQRLVHSNGNTYLHWYLQKPGQSPQLLIYKVSNRFSGVPDRFSGSGSGTDFTLKISRVEAEDVGVYYCSQSTHVPWTFGGGTKVEIKRTVAAPSVFIFPPSDEQLKSGTASVVCLLNNFYPREAKVQWKVDNALQSGNSQESVTEQDSKDSTYSLSSTLTLSKADYEKHKVYACEVTHQGLSSPVTKSFNRGEC | > 30 | –
Ab34 (antibody, human IgG1, kappa) heavy: not shown light: DVVMTQTPLSLSVTPGQPASISCRSSQRLVHSNGNTYLHWYLQKPGQSPQLLIYKVSNRFSGVPDRFSGSGSGTDFTLKISRVEAEDVGVYYCSQSTHVPWTFGGGTKVEIKRTVAAPSVFIFPPSDEQLKSGTASVVCLLNNFYPREAKVQWKVDNALQSGNSQESVTEQDSKDSTYSLSSTLTLSKADYEKHKVYACEVTHQGLSSPVTKSFNRGEC | > 30 | –
Ab41 (antibody, human IgG1, kappa) heavy: not shown light: DIVMTQTPLSLSVTPGQPASISCRSSQSLVHSNGNTYLHWYLQKPGQSPQLLIYKVSNRFSGVPDRFSGSGSGTDFTLKISRVEAEDVGVYYCSQSTHVPFTFGGGTKVEIKRTVAAPSVFIFPPSDEQLKSGTASVVCLLNNFYPREAKVQWKVDNALQSGNSQESVTEQDSKDSTYSLSSTLTLSKADYEKHKVYACEVTHQGLSSPVTKSFNRGEC | 4.38 | –
Ab43 (antibody, human IgG1, kappa) heavy: not shown light: DVVMTQTPLSLSVTPGQPASISCRSSQSLVHSNGNTYLHWYLQKPGQSPQLLIYKVSNRFSGVPDRFSGSGSGTDFTLKISRVEAEDVGVYYCSQSTHVPFTFGGGTKVEIKRTVAAPSVFIFPPSDEQLKSGTASVVCLLNNFYPREAKVQWKVDNALQSGNSQESVTEQDSKDSTYSLSSTLTLSKADYEKHKVYACEVTHQGLSSPVTKSFNRGEC | 6.75 | –
Ab33 (antibody, human IgG1, kappa, V domains shown) VH: EVQLVQSGAEVKKPGSSVKVSCKASGGTFTSFWMHWVRQAPGQGLEWIGVIDPSDTYTNYAQKFQGRVTITVDESTSTAYMELSSLRSEDTAVYYCARGDYSNWFTYWGQGTLVTVSS VL: DVVMTQTPLSLSVTPGQPASISCRSSQRLVHSNGNTYLHWYLQKPGQSPQLLIYKVSNRFSGVPDRFSGSGSGTDFTLKISRVEAEDVGVYFCSQSTHVPWTFGGGTKVEIKR | > 30 | –
